Experiment: yeast display, Sf9 membrane polyspecificity reagent, FACS + sequencing; frameworks hold sequencing errors
Method in brief: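 Nanobodies from a synthetic yeast display library (Saccharomyces cerevisiae BJ5465), induced 36–48 hours with galactose, were stained 1 hour at 4 °C with 10% biotinylated, detergent-solubilized Sf9 membrane reagent, enriched on streptavidin microbeads, then FACS-sorted. Anti-HA (expression) and streptavidin (reagent binding) fluorescence set low and high (top ~1%) gates. Polyreactivity labels come from the gate of origin. Genes were colony-PCR amplified, MiSeq 2 × 250 sequenced and filtered by CDR length.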

Row | Sequence | polyreactivity (PSR sort gate)
1 | QVQLVESVGGLVQAGGSLRLSCAASGSNFSVYVMGWYRQAPGKERELVADISRSGGSTYYADSVKGRFTISRDNAKNTVYLQMNSLKPEDTAVYYCAASLYLSWLFEYWGQGTQVTVSS | low polyreactivity
2 | QVQVVESGGGLVQAGGSLRLTCAASGRTFINYAIGRYRQPAAKERELVAAITPGGRTNYADSVKGRFTNSRDNAKYTVYLQMNSVTPEDTAVYYCAADRYYWGRYTLNYWGQGTQVTVSS | low polyreactivity
3 | QVQLVESGGGLVQAGGSLRLSCAASGSIFRSNGMGWYREAPGKERELVAAITSSGGSTYYADTVKGRFTISRDNAKNTVYLHMNSLKPEDTAVYYCAKRWNWSYNYWGQGTQVTVSS | high polyreactivity
4 | QVQLRESGGGLVQAGGSLSLSCAASGTIFYSRYMGWYRQAPGKEREFVASISSGGNTNYADSVKGRFTISRDNAKNTVYLQMNSLKPEDTAVYYCAVNTGLITTCPYWGQGTQVTVSS | high polyreactivity
5 | QVQLVESGGGLVQAGGSLRLSCDPSGRIFNRYAMGWYRQAPGKERELVAAITSGGDTNYADSVKGRFTISRDNAKNTVYLQMNSLKQEDTAVYYCNARSRGRASGYDYWGQGTQVTVSS | high polyreactivity
6 | QVQLVESGGGLVQAGGSLRLSCAASGSIFQIVYAMGWYRQAPGKERELVAAISRGGSTYYADSVKGRFTISRDNAKNTVYLQMNSLKPEDTAVYYCAADIVELSPRGVYHFDYWGQGTQVTVSS | high polyreactivity
7 | QVQLVESGGGLVQAGGSLRLSCAASGRTFWWYAMGWYRQEPGKERELVAAITWSGGSTYYADSVKGRFTISRDNAKNTVYLQMNSLKPEDTAVYYCAAYVHNKYDYWGQGTQVTVSS | low polyreactivity
8 | QVQLVESGGGLVQAGGSLRLSCAASGSTSVVNAMGWYRQAPGKERELVATITRSAGRTYYADSVKGRFTISRDNAKNTVYLQMNSLKPEDTAVSYCAKDTDISTHHSKGRAKSRYDYWGQGTQVTVSS | low polyreactivity
9 | QVQLVESGGGLVQAGGSLRLSCAASGFTFYYNAMGWYRQAPGKERELVASIRSGGSTKYADSVKGRFTISRDNAKNTVYLQMNSLKPEDTAVYYCAKERYHISFFYQMVYWGQGTQVTVSS | low polyreactivity
10 | QVQLVESGGGLVHAGGSLRLSCAASGYIIGYYTMGWYRQAPGKERELVATIRSGGSTYYADSVKGRFTISRDNANNSVYLQINSLKPEDTAVYYCAKRVRRISEYGYWGQGTHVTVSS | high polyreactivity
11 | QVQLVESGGGLVQAGGSLRLSCAASGRIFYYNAMGWYRQAPGKERELVAAISYTSGRTYYADSVKGRFTISRDNAKNTVYLQMNSLKPEDTAVYYCAADYYLRKGMDYWGQVTQVTVSS | low polyreactivity
12 | QVQLVESGGGLVQAGGSLRLSCAASGFIFRYYARGWYRQGPGKERELVAAIDESGGSTYYADSVKGSFTISRDNSKKTVYLQMNSLKAVDTEVYYCAAYSNFYLNYGYGYWGQVTQVTVSS | high polyreactivity
13 | QVQLVESGGRLVQAGGSLRLSCAASVSTFRKYAMGWYRQAPGKEREFVAAITWSTGTTYYADSVKGRFTISRDTAKNTVYLQMNSLKPEDTAVYYCAADSQPPHELYESIEHESWGQGTQVTVSS | low polyreactivity
14 | QVQLVESGGGLVQAGGSLRLSCAASGRISSQYAMGWYRQAPGKERELVAAISTSGDRTYYADSVKGRFTISRDTAKNTVYLEMNSLKPEDTAVYYCAKDCPYTYGRDIYEYWGQGTQVTVSS | low polyreactivity
15 | QVQLVESGGGLVQAGGSLRLSCAASGRIFADNGMGWYRQAPGKERELVASITSSGGDTYYADSVKGRFTISRDNAKNTVYLQMNSLKPEDTAVYYCATECSWLFYGVWVVTFGDDYWGQGTQVTVSS | low polyreactivity
16 | QVQLVESGGGLVQAGGSLRLSCAASGITLYLNAMGWYRQAPGKERELVAAITASGGSTYADSVKGRFTISRDNAQNTVYLQMNSLKPEDTAVYYCAADVIYEYYFTFGVGYYEYDYWGQGTQVTVSS | low polyreactivity

Row | Sequence | polyreactivity (PSR sort gate)
17 | QVQLVESGGGLVQAGGSLRLSCAASGSTFIFNAMGWYRQAPGKERELVAGISSGSTYYADSVKGRFTISRDNAKNTVYLQMNSLIPEDTAVYSCATKLRRWRFYAAYDYWGQGTQVTVSS | high polyreactivity
18 | QLQLVESFTGLVQAGGSLRLSCAASVPTFASYAMGWSRQAPGKERELVAVITRGVRTYYADSVKGRITISRDNAMNTVYLQMNSLKPEDTAVYDCAKERYNANYDTSLYDYWGQGTQGTVSS | low polyreactivity
19 | QVQLVESGGGIVQAGGSLRLSCAASGRILGANDMGWYRQAPGTERELVAAITSGGRTYYADSVKGRFTISRDNAKNTVYLQMNCLKPEDTAVYYCAVGGWDESVGKGYDYWGQGTQVTVSS | low polyreactivity
20 | QVQLVESGGGLVQAGGSLRLSCAASGSIFPYNAMGWYRQERGNERELVAAISISGGSTYYADSVKGRFTISRDNAKNTVYFQMNSLKPEDTAVYYCAARQTLSSAFDYWGQGTQVTVSS | low polyreactivity
21 | QVQLVESGGGLVQAGGSLRLSCAASGRIITFNPMGWYRQAPGKERELVAAISSRGDGTYYADSVKGRYTISRDNAKNSFYVQMNSLKPEDTAVYYCARYPDDYYDWGYDYWGHGTQVTVSS | low polyreactivity
22 | QVQLVESVGGLVQAGGSLRLSCAASGFIFFFYAMGWYRQAPGKERELVAAISDGVSTYYADSVKGRFTISSDNAKNTVYLQMNSLKPEDTAVYYCAVSRGDEPEFDYWGQGTQVTVSS | low polyreactivity
23 | QVQLVESGGGLVQAGGSLRLSCAASGFIFTANAMGWYRQAPGKERELVAAINWSDGGTYYADSVKGRFTISRDNAKNTVYLQMNSLKPEDTAVYYCNAQWAWTYYYWGQGTQVTVSS | low polyreactivity
24 | QVQLVESGGGLVQAGGSLRLSCGASGSTSVRYAMGWYRQAPGKERELVAAISSSGGSTYYAVSVKGRFTISRDTAKNTVYLQMNSLKPEDTAVYYCNAVPYTTFDWGQGTQVTVSS | low polyreactivity
25 | QVQLVESGGGLVQAGRSLRLSCAASGLIFYCYVMGWYRQAPRKERELVAGISRNSGSTYYADSVKGRFTISRDNAKNTVYLQMNSLKPEDTAVYYCAKAYYRRYAAPGYDYWGQVTQVTVSS | low polyreactivity
26 | QVQLVESSGGLVQAGGSLRLSCAASGSIFPSNAMGWYRQAPGKERELVARITGGGGNTYYADSVKGRFTISRDNAKNTVYLQMNSLKPEDTAVYYCAADYTNWKTGSNEMYYWGQGTQVTVSS | low polyreactivity
27 | QVQLVESGGGLVQAGGSLRLSCAASGITFARYAMGWYRQAPGKERELVAAISSRGGRTYYADSVKGRFTISRDNAKNTVYLQMNSLKPEDTAVYYCAADYVWSTISGYWGQGTQVTVSS | high polyreactivity
28 | QVQLVESGGALVQAGGSLRLSCAASGRIFLKYTMGWYRQAPGKERELVAAISRGGSTYYADSVKGRFTISRDNAKNTVYLQMNSLKPEDTAVYYCAATSYRRTGYNYWGQGTQVTVSS | high polyreactivity
29 | QVQLVESGGGLVQAGGSLRLSCAASGSIFRRYAMGWYRQAPGKERELVAGITRGGSTYYADSVKGRFTISRDNAKNTVYLQMNSLKPEDTAVYYCNAVRRGLPVVGAYDYWGQGTQVTVSS | high polyreactivity
30 | QVQLVESGGGLFQAGGSLRLSSAASGFTFWYYAMGWYRQAPGKERELVASISRTGGTTYYADSVKGRFKISRDIAKNTVYLQMNSLKPEDTAVYYCAARRQARRYWEGDYWCQGTQVTVSS | high polyreactivity
31 | QVQLVESGGGLVQAGGSLRLICAASGRIFYAYAMGWYRQAPGKERELVATITYGGGSTYYADSVKGRFTISRDNAKNTVYLQMNSLKPEDTAVYYCAAVRTGSTLYTIRYYYWGQGTQVTVSS | low polyreactivity
32 | QVQLVESGGGLVQAGGSLSLSCAASGSLFRPNAMGWYRQAPGKERELVAAITWSGDSTYYADSVKGRFTISRDNAKNTVYLQMNSLKPEATAVYYCAADFTYQGSSANDYWGQGTQVTVSS | low polyreactivity

— the nanobody polyreactivity screen of Harvey et al. (2022)
